Results published in paper PMC12394722, “Regulatory role of the N-terminal intrinsically disordered region of the DEAD-box RNA helicase DDX3X in selective RNA recognition”.

Tests used:
MBP-FL DDX3X [1] = target: T1, MBP-FL DDX3X (human, UniProt O00571 1-662); test: EMSA; 1 mM ATP-Mg; EMSA: 20 mM K-phosphate pH 7.0, 125 mM KCl, 1 mM DTT, 0.005% Tween-20, 10% glycerol (1 mM ATP-Mg for MBP-FL/Core-C), gel at room temperature; ITC: 20 mM K-phosphate pH 7.0, 50 mM KCl, 25 C; NMR: 200 mM KCl (also 120 mM), 10 C, 50 uM; details: protein: recombinant, tags: N-terminal His6-MBP, label: 5'-FAM
T1 sequence (O00571 whole entry): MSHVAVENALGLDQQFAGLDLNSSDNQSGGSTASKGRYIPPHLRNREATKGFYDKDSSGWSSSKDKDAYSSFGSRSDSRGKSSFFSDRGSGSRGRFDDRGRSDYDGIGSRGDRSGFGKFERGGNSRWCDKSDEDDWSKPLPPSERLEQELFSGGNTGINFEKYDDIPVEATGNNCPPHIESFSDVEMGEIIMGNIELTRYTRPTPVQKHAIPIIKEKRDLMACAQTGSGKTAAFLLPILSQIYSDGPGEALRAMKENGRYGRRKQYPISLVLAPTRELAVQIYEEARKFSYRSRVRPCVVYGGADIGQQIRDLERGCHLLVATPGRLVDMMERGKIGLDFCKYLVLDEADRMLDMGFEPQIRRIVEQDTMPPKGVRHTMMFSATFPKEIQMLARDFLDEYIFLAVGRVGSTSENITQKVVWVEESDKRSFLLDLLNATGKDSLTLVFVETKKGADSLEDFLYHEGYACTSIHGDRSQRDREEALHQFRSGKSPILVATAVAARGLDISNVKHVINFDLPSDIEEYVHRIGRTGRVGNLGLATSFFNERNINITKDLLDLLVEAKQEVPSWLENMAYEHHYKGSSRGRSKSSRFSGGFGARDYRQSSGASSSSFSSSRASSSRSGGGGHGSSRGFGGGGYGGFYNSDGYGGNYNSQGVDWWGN

MBP-Core-C DDX3X = MBP-Core-C DDX3X (human, UniProt O00571 132-662); test: as above; details: protein: recombinant, tags: N-terminal His6-MBP, label: 5'-FAM
MBP-Core-C DDX3X, sequence (O00571 132-662): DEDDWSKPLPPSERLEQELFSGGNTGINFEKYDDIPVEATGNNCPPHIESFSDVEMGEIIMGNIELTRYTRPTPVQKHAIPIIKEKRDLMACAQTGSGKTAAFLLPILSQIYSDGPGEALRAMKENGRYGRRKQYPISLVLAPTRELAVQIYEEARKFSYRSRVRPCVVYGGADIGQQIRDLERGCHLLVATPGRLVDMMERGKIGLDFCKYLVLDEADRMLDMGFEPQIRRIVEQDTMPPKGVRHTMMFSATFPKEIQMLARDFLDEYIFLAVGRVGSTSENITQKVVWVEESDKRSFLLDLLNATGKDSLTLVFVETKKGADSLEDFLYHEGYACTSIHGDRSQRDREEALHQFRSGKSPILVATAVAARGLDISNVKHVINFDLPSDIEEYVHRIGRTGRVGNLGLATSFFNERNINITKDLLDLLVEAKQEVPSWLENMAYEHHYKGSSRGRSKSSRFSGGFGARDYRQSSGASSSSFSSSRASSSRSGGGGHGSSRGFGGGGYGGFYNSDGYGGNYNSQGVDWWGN

DDX3X N-IDR [2] = target: T2, DDX3X N-IDR (human, UniProt O00571 1-132); test: EMSA; 125 mM KCl; EMSA: 20 mM K-phosphate pH 7.0, 125 mM KCl, 1 mM DTT, 0.005% Tween-20, 10% glycerol (1 mM ATP-Mg for MBP-FL/Core-C), gel at room temperature; ITC: 20 mM K-phosphate pH 7.0, 50 mM KCl, 25 C; NMR: 200 mM KCl (also 120 mM), 10 C, 50 uM; details: protein: recombinant, tags: His6-SUMO tag cleaved (Ulp1)
T2 sequence (O00571 1-132): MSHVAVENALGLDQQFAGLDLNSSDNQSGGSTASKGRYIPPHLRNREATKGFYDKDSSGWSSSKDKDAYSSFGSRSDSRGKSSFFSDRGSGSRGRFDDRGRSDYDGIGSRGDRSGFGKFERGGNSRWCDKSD

RR-3 fragment [3] = target: T3, RR-3 fragment (human, UniProt O00571 106-127); test: NMR; little to no change; EMSA: 20 mM K-phosphate pH 7.0, 125 mM KCl, 1 mM DTT, 0.005% Tween-20, 10% glycerol (1 mM ATP-Mg for MBP-FL/Core-C), gel at room temperature; ITC: 20 mM K-phosphate pH 7.0, 50 mM KCl, 25 C; NMR: 200 mM KCl (also 120 mM), 10 C, 50 uM; details: protein: recombinant, tags: His6-SUMO tag cleaved
T3 chain: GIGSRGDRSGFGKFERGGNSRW

RR-2 fragment [4] = target: T4, RR-2 fragment (human, UniProt O00571 73-102); test: as above; details: protein: recombinant, tags: His6-SUMO tag cleaved
T4 sequence (O00571 73-102): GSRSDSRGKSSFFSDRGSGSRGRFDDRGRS

RR-1 fragment [5] = target: T5, RR-1 fragment (human, UniProt O00571 31-61); test: as above; details: protein: recombinant, tags: His6-SUMO tag cleaved
T5 sequence (O00571 31-61): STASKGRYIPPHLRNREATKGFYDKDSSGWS

DDX3X N-IDR [6] = target: T2, DDX3X N-IDR; test: NMR; EMSA: 20 mM K-phosphate pH 7.0, 125 mM KCl, 1 mM DTT, 0.005% Tween-20, 10% glycerol (1 mM ATP-Mg for MBP-FL/Core-C), gel at room temperature; ITC: 20 mM K-phosphate pH 7.0, 50 mM KCl, 25 C; NMR: 200 mM KCl (also 120 mM), 10 C, 50 uM; details: protein: recombinant, tags: His6-SUMO tag cleaved (Ulp1)
DDX3X N-IDR [7] = target: T2, DDX3X N-IDR; test: NMR; 200 mM KCl; EMSA: 20 mM K-phosphate pH 7.0, 125 mM KCl, 1 mM DTT, 0.005% Tween-20, 10% glycerol (1 mM ATP-Mg for MBP-FL/Core-C), gel at room temperature; ITC: 20 mM K-phosphate pH 7.0, 50 mM KCl, 25 C; NMR: 200 mM KCl (also 120 mM), 10 C, 50 uM; details: protein: recombinant; tags: His6-SUMO tag cleaved (Ulp1); label: 5'-FAM in EMSA; G4, heterogeneous
RR-3 fragment [8] = target: T3, RR-3 fragment; test: NMR; EMSA: 20 mM K-phosphate pH 7.0, 125 mM KCl, 1 mM DTT, 0.005% Tween-20, 10% glycerol (1 mM ATP-Mg for MBP-FL/Core-C), gel at room temperature; ITC: 20 mM K-phosphate pH 7.0, 50 mM KCl, 25 C; NMR: 200 mM KCl (also 120 mM), 10 C, 50 uM; details: protein: recombinant; tags: His6-SUMO tag cleaved; parallel G4, dimer of 2 strands
RR-2 fragment [9] = target: T4, RR-2 fragment; test: as above; details: protein: recombinant, tags: His6-SUMO tag cleaved
RR-1 fragment [10] = target: T5, RR-1 fragment; test: as above; details: protein: recombinant, tags: His6-SUMO tag cleaved
DDX3X N-IDR [11] = target: T2, DDX3X N-IDR; test: ITC; 50 mM KCl; dimer concentration; EMSA: 20 mM K-phosphate pH 7.0, 125 mM KCl, 1 mM DTT, 0.005% Tween-20, 10% glycerol (1 mM ATP-Mg for MBP-FL/Core-C), gel at room temperature; ITC: 20 mM K-phosphate pH 7.0, 50 mM KCl, 25 C; NMR: 200 mM KCl (also 120 mM), 10 C, 50 uM; details: protein: recombinant; tags: His6-SUMO tag cleaved (Ulp1); parallel G4, dimer of 2 strands
DDX3X N-IDR [12] = target: T2, DDX3X N-IDR; test: EMSA; little to no shift; 125 mM KCl; EMSA: 20 mM K-phosphate pH 7.0, 125 mM KCl, 1 mM DTT, 0.005% Tween-20, 10% glycerol (1 mM ATP-Mg for MBP-FL/Core-C), gel at room temperature; ITC: 20 mM K-phosphate pH 7.0, 50 mM KCl, 25 C; NMR: 200 mM KCl (also 120 mM), 10 C, 50 uM; details: protein: recombinant; tags: His6-SUMO tag cleaved (Ulp1); label: 3'-FAM
MBP-FL DDX3X [13] = target: T1, MBP-FL DDX3X; test: EMSA; little to no shift; 1 mM ATP-Mg; EMSA: 20 mM K-phosphate pH 7.0, 125 mM KCl, 1 mM DTT, 0.005% Tween-20, 10% glycerol (1 mM ATP-Mg for MBP-FL/Core-C), gel at room temperature; ITC: 20 mM K-phosphate pH 7.0, 50 mM KCl, 25 C; NMR: 200 mM KCl (also 120 mM), 10 C, 50 uM; details: protein: recombinant, tags: N-terminal His6-MBP
RR-3 fragment [14] = target: T3, RR-3 fragment; test: NMR; smaller reduction than telomeric GQ; EMSA: 20 mM K-phosphate pH 7.0, 125 mM KCl, 1 mM DTT, 0.005% Tween-20, 10% glycerol (1 mM ATP-Mg for MBP-FL/Core-C), gel at room temperature; ITC: 20 mM K-phosphate pH 7.0, 50 mM KCl, 25 C; NMR: 200 mM KCl (also 120 mM), 10 C, 50 uM; details: protein: recombinant; tags: His6-SUMO tag cleaved; G4 monomer
DDX3X N-IDR [15] = target: T2, DDX3X N-IDR; test: ITC; 50 mM KCl; EMSA: 20 mM K-phosphate pH 7.0, 125 mM KCl, 1 mM DTT, 0.005% Tween-20, 10% glycerol (1 mM ATP-Mg for MBP-FL/Core-C), gel at room temperature; ITC: 20 mM K-phosphate pH 7.0, 50 mM KCl, 25 C; NMR: 200 mM KCl (also 120 mM), 10 C, 50 uM; details: protein: recombinant; tags: His6-SUMO tag cleaved (Ulp1); G4 monomer
[16] = parallel G4, dimer of 2 strands

## UGUGGGAGGGGCGGGUCUGGGUGC (structured_RNA) [FAM-NRAS GQ RNA]
MBP-FL DDX3X [1]; G4 monomer
  Kd: 43 ± 4 nM
MBP-Core-C DDX3X; G4 monomer
  Kd: 201 ± 5 nM
DDX3X N-IDR [2]; label: 5'-FAM, G4 monomer
  Kd: 54 ± 12 nM

## UGUAGAAAGAGCAGAUCUAGAUGC (ssRNA) [NRAS mutant RNA]
RR-3 fragment [3]; GQ abolished
  binding result: no binding
RR-2 fragment [4]; GQ abolished
  binding result: no binding
RR-1 fragment [5]; GQ abolished
  binding result: no binding

## UUUUUUUUUU (ssRNA) [poly-U10]
RR-3 fragment [3]
  binding result: no binding
RR-2 fragment [4]
  binding result: no binding
RR-1 fragment [5]
  binding result: no binding

## AUACCUUGUUUAUAGUACCUUCUCU (ssRNA) [MITF 7-31]
DDX3X N-IDR [6]; non-GQ
  binding result: no binding

## UAGGGUUAGGGU (structured_RNA) [FAM-telomeric GQ RNA]
MBP-FL DDX3X [1]; [16]
  Kd: 54 ± 14 nM
MBP-Core-C DDX3X; [16]
  Kd: 579 ± 69 nM
DDX3X N-IDR [2]; label: 5'-FAM, parallel G4, dimer of 2 strands
  Kd: 1000 ± 200 nM

## GCGGAGGGCGAGGCGGCGUGGACAG (structured_RNA) [RAC1 53-77]
DDX3X N-IDR [2]; label: 5'-FAM in EMSA, G4
  Kd: 510 ± 80 nM

## GCUGACGGGCGCGGCGGGGGCGGCC (structured_RNA) [ODC1 279-303]
DDX3X N-IDR [7]
  binding result: binds

## UAGGGUUAGGGU (structured_RNA) [telomeric GQ RNA]
RR-3 fragment [8]
  binding result: binds
RR-2 fragment [9]; [16]
  binding result: binds
RR-1 fragment [10]; [16]
  binding result: binds
DDX3X N-IDR [11]
  Kd: 3400 nM

## UGUAGAAAGAGCAGAUCUAGAUGC (ssRNA) [FAM-NRAS mutant RNA]
MBP-FL DDX3X [1]; GQ abolished
  Kd: 222 ± 9 nM
DDX3X N-IDR [2]; label: 5'-FAM, GQ abolished
  Kd: 6000 ± 800 nM

## UUUUUUUUUUUU (ssRNA) [poly-U12]
DDX3X N-IDR [12]
  binding result: no binding
MBP-FL DDX3X [13]; label: 3'-FAM
  binding result: no binding

## UGUGGGAGGGGCGGGUCUGGGUGC (structured_RNA) [NRAS GQ RNA]
RR-2 fragment [9]; G4 monomer
  binding result: binds
RR-1 fragment [10]; G4 monomer
  binding result: binds
RR-3 fragment [14]
  binding result: binds
DDX3X N-IDR [15]
  Kd: 1400 nM

B1: GC-14mer dsRNA (NMR) (dsRNA)
RNA 1: GGGCGGGCCCGCCC
RNA 2: GGGCGGGCCCGCCC
RR-3 fragment [3]; blunt, self-complementary
  binding result: no binding
RR-2 fragment [4]; blunt, self-complementary
  binding result: no binding
RR-1 fragment [5]; blunt, self-complementary
  binding result: no binding

## GGCACUUCGGUGCC (structured_RNA) [FAM-14mer tetraloop]
MBP-FL DDX3X [13]; label: 5'-FAM, hairpin
  binding result: no binding

## AGUAGGGAGCGGCGUGCCGUGGGGC (structured_RNA) [ODC1 150-174]
DDX3X N-IDR [2]; label: 5'-FAM in EMSA, G4, heterogeneous
  Kd: 1970 ± 230 nM

## GAAAGUAGAGGGAGGGAUAGUCUAC (structured_RNA) [MITF 62-86]
DDX3X N-IDR [6]; G4
  binding result: binds
